Experimental findings from publication PMC6698736 are described below.

For data set [1], the target named is KacA, wild type, purified alone (Klebsiella pneumoniae). Nature of the data set: SEC-MALS. Background: SEC sorts molecules by how far they enter the pores of the column.
Data set [2] has as its target KacA (coexpressed in KacAT);KacT (Klebsiella pneumoniae;Klebsiella …, UniProt A0A0H3GLZ1;A0A0H3GMP0 1-88;1-177, |). Nature of the data set: X-ray crystallography.

In turn, “KacA, wild type, purified alone (natural protein)” gave a stoichiometry N in data set [1] of 2.
Regarding KacT^Y145F (enzyme), in data set [1], the N, peak α (KacT per KacA (8:8)) came to 1 and the N, peak β (KacT per KacA (2:4)) came out at 0.5.

B1: 27-bp kacAT operator duplex (dsDNA)
DNA 1: AAATGTACGGTTATTAACCGTACATGA
DNA 2: TCATGTACGGTTAATAACCGTACATTT
With B1, the binding result in data set [2] is reported as “binds”.

In general, stoichiometry N refers to a count of units in the complex or per binding partner.
